Test results reported in the supplement of paper PMC5998384.

Legend:
HeLa Kyoto [1] = assay: solubility in G1/S (NP-40 vs SDS abundance) (log2 ratio); higher = more soluble; details: cell cycle stage: G1/S
HeLa Kyoto [2] = assay: solubility change mitosis vs G1/S (difference of NP-40 vs SDS log2 ratios) (log2 ratio difference); higher = more soluble in mitosis
HeLa Kyoto [3] = assay: thermal stability score vs G1/S (z-score of summed log2 fold changes over temperatures); higher = more thermally stable than in G1/S
HeLa Kyoto [4] = assay: melting temperature (median over replicates), in situ; higher = more thermally stable
[5] = cell cycle stage: early G1 (4.5 h after nocodazole release)
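For melting temperature (median over replicates), in situ in this document: HeLa Kyoto cells synchronized by double thymidine or nocodazole block, proteins quantified by TMT10plex mass spectrometry, three independent biological replicates.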
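For solubility change mitosis vs G1/S (difference of NP-40 vs SDS log2 ratios) in this document: synchronized HeLa Kyoto cells (double thymidine block for G1/S, nocodazole release for mitosis), protein amounts in NP-40 versus SDS lysates quantified by mass spectrometry, three biological replicates.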
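For solubility in G1/S (NP-40 vs SDS abundance) in this document: HeLa Kyoto cells arrested at G1/S by double thymidine block, proteins quantified by TMT10plex mass spectrometry in mild NP-40 versus SDS extracts, three biological replicates.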
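For thermal stability score vs G1/S (z-score of summed log2 fold changes over temperatures) in this document: synchronized HeLa Kyoto cells, proteins quantified by TMT10plex mass spectrometry, three biological replicates, mitosis taken 0.5 h after nocodazole release, G1/S directly after double thymidine block.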

Chain of KCTD3 (chain, as listed by the source): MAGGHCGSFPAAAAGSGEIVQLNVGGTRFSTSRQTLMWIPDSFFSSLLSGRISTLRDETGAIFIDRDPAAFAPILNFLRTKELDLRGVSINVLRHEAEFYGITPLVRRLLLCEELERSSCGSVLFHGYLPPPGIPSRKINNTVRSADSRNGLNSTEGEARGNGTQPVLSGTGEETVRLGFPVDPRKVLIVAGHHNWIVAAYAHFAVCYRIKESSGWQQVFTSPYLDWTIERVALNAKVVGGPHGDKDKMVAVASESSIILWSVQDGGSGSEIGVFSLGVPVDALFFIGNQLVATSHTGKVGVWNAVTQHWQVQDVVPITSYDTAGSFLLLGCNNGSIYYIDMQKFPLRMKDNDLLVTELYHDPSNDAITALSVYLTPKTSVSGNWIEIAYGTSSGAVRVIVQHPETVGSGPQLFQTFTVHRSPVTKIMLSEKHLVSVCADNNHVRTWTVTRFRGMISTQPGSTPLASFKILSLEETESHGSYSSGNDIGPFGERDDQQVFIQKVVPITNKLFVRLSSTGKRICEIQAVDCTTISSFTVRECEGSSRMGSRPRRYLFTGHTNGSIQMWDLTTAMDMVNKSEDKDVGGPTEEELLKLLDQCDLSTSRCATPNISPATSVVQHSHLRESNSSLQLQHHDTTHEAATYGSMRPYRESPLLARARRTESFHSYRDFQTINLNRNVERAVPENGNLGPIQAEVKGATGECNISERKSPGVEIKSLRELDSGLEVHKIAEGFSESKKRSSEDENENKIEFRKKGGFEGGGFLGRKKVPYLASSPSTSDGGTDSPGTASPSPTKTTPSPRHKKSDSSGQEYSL

| Substance | solubility in G1/S (log2) (HeLa Kyoto [1]) | solubility change mitosis (log2) (HeLa Kyoto [2]) | thermal stability score (HeLa Kyoto [3]; [5]) | thermal stability score (HeLa Kyoto [3]; cell cycle stage: mitosis) | melting temperature (HeLa Kyoto [4]; cell cycle stage: G1/S) [°C] | melting temperature (HeLa Kyoto [4]; cell cycle stage: mitosis) [°C] |
| --- | --- | --- | --- | --- | --- | --- |
| MPATRKPMRYGHTEGHTEVCFDDSGSFIVTCGSDGDVRIWEDLDDDDPKFINVGEKAYSCALKSGKLVTAVSNNTIQVHTFPEGVPDGILTRFTTNANHVVFNGDGTKIAAGSSDFLVKIVDVMDSSQQKTFRGHDAPVLSLSFDPKDIFLASASCDGSVRVWQISDQTCAISWPLLQKCNDVINAKSICRLAWQPKSGKLLAIPVEKSVKLYRRESWSHQFDLSDNFISQTLNIVTWSPCGQYLAAGSINGLIIVWNVETKDCMERVKHEKGYAICGLAWHPTCGRISYTDAEGNLGLLENVCDPSGKTSSSKVSSRVEKDYNDLFDGDDMSNAGDFLNDNAVEIPSFSKGIINDDEDDEDLMMASGRPRQRSHILEDDENSVDISMLKTGSSLLKEEEEDGQEGSIHNLPLVTSQRPFYDGPMPTPRQKPFQSGSTPLHLTHRFMVWNSIGIIRCYNDEQDNAIDVEFHDTSIHHATHLSNTLNYTIADLSHEAILLACESTDELASKLHCLHFSSWDSSKEWIIDLPQNEDIEAICLGQGWAAAATSALLLRLFTIGGVQKEVFSLAGPVVSMAGHGEQLFIVYHRGTGFDGDQCLGVQLLELGKKKKQILHGDPLPLTRKSYLAWIGFSAEGTPCYVDSEGIVRMLNRGLGNTWTPICNTREHCKGKSDHYWVVGIHENPQQLRCIPCKGSRFPPTLPRPAVAILSFKLPYCQIATEKGQMEEQFWRSVIFHNHLDYLAKNGYEYEESTKNQATKEQQELLMKMLALSCKLEREFRCVELADLMTQNAVNLAIKYASRSRKLILAQKLSELAVEKAAELTATQVEEEEEEEDFRKKLNAGYSNTATEWSQPRFRNQVEEDAEDSGEADDEEKPEIHKPGQNSFSKSTNSSDVSAKSGAVTFSSQGRVNPFKVSASSKEPAMSMNSARSTNILDNMGKSSKKSTALSRTTNNEKSPIIKPLIPKPKPKQASAASYFQKRNSQTNKTEEVKEENLKNVLSETPAICPPQNTENQRPKTGFQMWLEENRSNILSDNPDFSDEADIIKEGMIRFRVLSTEERKVWANKAKGETASEGTEAKKRKRVVDESDETENQEEKAKENLNLSKKQKPLDFSTNQKLSAFAFKQE [WDHD1] | -0.1 | -0.0991 | 2.58 | 6.16 | 47.9 | 49.6 |
| MEVPPRLSHVPPPLFPSAPATLASRSLSHWRPRPPRQLAPLLPSLAPSSARQGARRAQRHVTAQQPSRLAGGAAIKGGRRRRPDLFRRHFKSSSIQRSAAAAAATRTARQHPPADSSVTMEDMNEYSNIEEFAEGSKINASKNQQDDGKMFIGGLSWDTSKKDLTEYLSRFGEVVDCTIKTDPVTGRSRGFGFVLFKDAASVDKVLELKEHKLDGKLIDPKRAKALKGKEPPKKVFVGGLSPDTSEEQIKEYFGAFGEIENIELPMDTKTNERRGFCFITYTDEEPVKKLLESRYHQIGSGKCEIKVAQPKEVYRQQQQQQKGGRGAAAGGRGGTRGRGRGQGQNWNQGFNNYYDQGYGNYNSAYGGDQNYSGYGGYDYTGYNYGNYGYGQGYADYSGQQSTYGKASRGGGNHQNNYQPY [HNRNPDL] | -0.122 | 0.352 | 0.0293 | -2.51 | 54.4 | 53.6 |
| MAAEPLTELEESIETVVTTFFTFARQEGRKDSLSVNEFKELVTQQLPHLLKDVGSLDEKMKSLDVNQDSELKFNEYWRLIGELAKEIRKKKDLKIRKK [S100A13] | -0.421 | 0.294 | -6.56 | -6.62 | 53.4 | 52 |
| KCTD3 | -0.0736 | 0.0231 | -2.92 | -4.02 | 57.6 | 56.7 |
| MADTLPSEFDVIVIGTGLPESIIAAACSRSGRRVLHVDSRSYYGGNWASFSFSGLLSWLKEYQENSDIVSDSPVWQDQILENEEAIALSRKDKTIQHVEVFCYASQDLHEDVEEAGALQKNHALVTSANSTEAADSAFLPTEDESLSTMSCEMLTEQTPSSDPENALEVNGAEVTGEKENHCDDKTCVPSTSAEDMSENVPIAEDTTEQPKKNRITYSQIIKEGRRFNIDLVSKLLYSRGLLIDLLIKSNVSRYAEFKNITRILAFREGRVEQVPCSRADVFNSKQLTMVEKRMLMKFLTFCMEYEKYPDEYKGYEEITFYEYLKTQKLTPNLQYIVMHSIAMTSETASSTIDGLKATKNFLHCLGRYGNTPFLFPLYGQGELPQCFCRMCAVFGGIYCLRHSVQCLVVDKESRKCKAIIDQFGQRIISEHFLVEDSYFPENMCSRVQYRQISRAVLITDRSVLKTDSDQQISILTVPAEEPGTFAVRVIELCSSTMTCMKGTYLVHLTCTSSKTAREDLESVVQKLFVPYTEMEIENEQVEKPRILWALYFNMRDSSDISRSCYNDLPSNVYVCSGPDCGLGNDNAVKQAETLFQEICPNEDFCPPPPNPEDIILDGDSLQPEASESSAIPEANSETFKESTNLGNLEESSE [CHM] | -0.115 | -0.191 | -0.484 | -1.2 | 52.9 | 53.1 |
| MFDTTPHSGRSTPSSSPSLRKRLQLLPPSRPPPEPEPGTMVEKGSDSSSEKGGVPGTPSTQSLGSRNFIRNSKKMQSWYSMLSPTYKQRNEDFRKLFSKLPEAERLIVDYSCALQREILLQGRLYLSENWICFYSNIFRWETTISIQLKEVTCLKKEKTAKLIPNAIQICTESEKHFFTSFGARDRCFLLIFRLWQNALLEKTLSPRELWHLVHQCYGSELGLTSEDEDYVSPLQLNGLGTPKEVGDVIALSDITSSGAADRSQEPSPVGSRRGHVTPNLSRASSDADHGAEEDKEEQVDSQPDASSSQTVTPVAEPPSTEPTQPDGPTTLGPLDLLPSEELLTDTSNSSSSTGEEADLAALLPDLSGRLLINSVFHVGAERLQQMLFSDSPFLQGFLQQCKFTDVTLSPWSGDSKCHQRRVLTYTIPISNPLGPKSASVVETQTLFRRGPQAGGCVVDSEVLTQGIPYQDYFYTAHRYCILGLARNKARLRVSSEIRYRKQPWSLVKSLIEKNSWSGIEDYFHHLERELAKAEKLSLEEGGKDARGLLSGLRRRKRPLSWRAHGDGPQHPDPDPCARAGIHTSGSLSSRFSEPSVDQGPGAGIPSALVLISIVICVSLIILIALNVLLFYRLWSLERTAHTFESWHSLALAKGKFPQTATEWAEILALQKQFHSVEVHKWRQILRASVELLDEMKFSLEKLHQGITVSDPPFDTQPRPDDSFS [GRAMD1A] | -0.0369 | -0.0358 | 0.21 | 0.368 | 50.4 | 51.8 |
| ERP29 | 0.456 | 0.169 | 2.19 | -0.433 | 54.6 | 55.7 |
